Results reported in publication PMC9482650, “Quantitative fragmentomics allow affinity mapping of interactomes” (Nature Communications, 2022).

T1: MPP6, Q9NZW5
T1 sequence (Q9NZW5 125-219, limits assumed, looked up): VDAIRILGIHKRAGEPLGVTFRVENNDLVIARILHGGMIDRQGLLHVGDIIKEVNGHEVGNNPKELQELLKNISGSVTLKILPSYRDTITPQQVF

T2: MPP7, Q5T2T1
T2 sequence (Q5T2T1 134-230, limits assumed, looked up): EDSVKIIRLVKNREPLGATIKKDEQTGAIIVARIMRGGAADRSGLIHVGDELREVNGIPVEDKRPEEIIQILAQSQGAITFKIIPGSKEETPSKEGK

T3: MPDZ_5, O75970
T3 sequence (O75970 695-796, limits assumed, looked up): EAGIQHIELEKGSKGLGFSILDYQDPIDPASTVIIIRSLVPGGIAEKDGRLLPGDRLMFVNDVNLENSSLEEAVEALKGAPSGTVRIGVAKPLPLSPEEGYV

T4: LRRC7, Q96NW7
T4 sequence (Q96NW7 1440-1537, limits assumed, looked up): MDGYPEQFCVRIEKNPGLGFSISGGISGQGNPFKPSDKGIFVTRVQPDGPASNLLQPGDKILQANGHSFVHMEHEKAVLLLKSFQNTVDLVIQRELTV

T5: MPDZ_10, O75970
T5 sequence (O75970 1624-1722, limits assumed, looked up): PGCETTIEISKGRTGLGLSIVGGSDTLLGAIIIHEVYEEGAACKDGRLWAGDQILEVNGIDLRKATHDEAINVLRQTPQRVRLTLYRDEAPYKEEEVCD

T6: GRIP1_7, Q9Y3R0
T6 sequence (Q9Y3R0 999-1096, limits assumed, looked up): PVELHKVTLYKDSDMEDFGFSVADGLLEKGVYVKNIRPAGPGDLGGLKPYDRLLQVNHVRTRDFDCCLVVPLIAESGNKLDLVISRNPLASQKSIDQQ

T7: RAPGEF6, Q8TEU7
T7 sequence (Q8TEU7 525-625, limits assumed, looked up): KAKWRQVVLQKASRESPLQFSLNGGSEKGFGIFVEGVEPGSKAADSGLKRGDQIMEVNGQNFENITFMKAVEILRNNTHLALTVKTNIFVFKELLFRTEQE

T8: GRIP1_2, Q9Y3R0
T8 sequence (Q9Y3R0 145-248, limits assumed, looked up): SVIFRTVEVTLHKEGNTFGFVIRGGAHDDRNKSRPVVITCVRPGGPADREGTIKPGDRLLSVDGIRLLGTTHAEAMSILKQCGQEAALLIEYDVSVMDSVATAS

T9: DFNB31_2, Q9P202
T9 sequence (Q9P202 274-371, limits assumed, looked up): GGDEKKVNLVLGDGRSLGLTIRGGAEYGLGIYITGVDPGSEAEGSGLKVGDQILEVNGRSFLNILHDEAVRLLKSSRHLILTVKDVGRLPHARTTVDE

T10: RADIL, Q96JH8
T10 sequence (Q96JH8 971-1071, limits assumed, looked up): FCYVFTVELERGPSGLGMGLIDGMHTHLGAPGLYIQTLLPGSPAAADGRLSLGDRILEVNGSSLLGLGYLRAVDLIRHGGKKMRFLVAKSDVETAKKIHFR


Assays:
Test in all cases: holdup assay
Set-up in all cases: key: below the threshold = too weak to quantify, mostly under pKd 3.1 to 4
Conditions in all cases: plain residues with an end cap or a label only (N-terminal biotin on a linker: ado-ado)
[1] = target: MAST1, Q9Y2H9
MAST1, Q9Y2H9, sequence (Q9Y2H9 962-1065): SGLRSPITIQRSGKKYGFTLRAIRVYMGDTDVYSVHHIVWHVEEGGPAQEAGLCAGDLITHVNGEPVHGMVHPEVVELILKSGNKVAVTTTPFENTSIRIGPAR

[2] = target: NHERF4_1, Q86UT5-2
NHERF4_1, Q86UT5-2, sequence (Q86UT5 other isoform, or with tags, fused parts or gaps): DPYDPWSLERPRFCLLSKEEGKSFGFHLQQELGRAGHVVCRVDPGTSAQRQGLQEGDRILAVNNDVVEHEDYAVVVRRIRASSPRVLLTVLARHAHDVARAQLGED

[3] = target: MAGI2_5, Q86UL8
MAGI2_5, Q86UL8, sequence (Q86UL8 915-1017): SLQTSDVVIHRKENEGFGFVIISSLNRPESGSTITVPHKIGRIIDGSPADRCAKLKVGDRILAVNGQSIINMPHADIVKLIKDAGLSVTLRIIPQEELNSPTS

[4] = target: GRIP2_6, Q9C0E4
GRIP2_6, Q9C0E4, sequence (Q9C0E4 648-740): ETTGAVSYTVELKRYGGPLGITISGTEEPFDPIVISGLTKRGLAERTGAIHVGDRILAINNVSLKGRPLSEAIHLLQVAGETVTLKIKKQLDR

[5] = target: T1, MPP6, Q9NZW5
[6] = target: PDZRN4_1, Q6ZMN7
PDZRN4_1, Q6ZMN7, sequence (Q6ZMN7 213-318): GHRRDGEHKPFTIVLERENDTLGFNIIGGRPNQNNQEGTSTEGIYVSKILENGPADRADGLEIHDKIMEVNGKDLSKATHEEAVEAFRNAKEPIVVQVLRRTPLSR

[7] = target: T2, MPP7, Q5T2T1
[8] = target: MAGI3_2, Q5TCQ9
MAGI3_2, Q5TCQ9, sequence (Q5TCQ9 398-503): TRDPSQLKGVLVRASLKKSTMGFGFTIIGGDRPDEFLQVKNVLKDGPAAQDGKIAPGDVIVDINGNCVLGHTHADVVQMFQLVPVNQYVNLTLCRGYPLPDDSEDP

[9] = target: Inadl_4, Q8NI35
Inadl_4, Q8NI35, sequence (Q8NI35 547-651): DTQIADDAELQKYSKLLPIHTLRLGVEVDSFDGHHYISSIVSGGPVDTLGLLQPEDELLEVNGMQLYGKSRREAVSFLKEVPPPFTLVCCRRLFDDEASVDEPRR

[10] = target: LDB3, O75112
LDB3, O75112, sequence (O75112 1-94): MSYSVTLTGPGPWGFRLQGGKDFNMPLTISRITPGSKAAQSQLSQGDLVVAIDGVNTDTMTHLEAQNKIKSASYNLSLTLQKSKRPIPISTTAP

[11] = target: T3, MPDZ_5, O75970
[12] = target: IL16_1, Q14005
IL16_1, Q14005, sequence (Q14005 210-306): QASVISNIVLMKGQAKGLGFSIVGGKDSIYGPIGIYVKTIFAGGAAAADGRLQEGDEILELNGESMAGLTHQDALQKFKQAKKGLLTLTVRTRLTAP

[13] = target: PTPN3, P26045
PTPN3, P26045, sequence (P26045 505-587): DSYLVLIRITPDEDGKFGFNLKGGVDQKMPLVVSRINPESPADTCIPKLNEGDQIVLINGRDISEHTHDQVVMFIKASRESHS

[14] = target: GIPC2, Q8TF65
GIPC2, Q8TF65, sequence (Q8TF65 112-203): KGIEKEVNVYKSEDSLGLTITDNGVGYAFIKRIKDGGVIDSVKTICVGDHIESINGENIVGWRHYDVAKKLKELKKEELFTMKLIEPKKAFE

[15] = target: T4, LRRC7, Q96NW7
[16] = target: T5, MPDZ_10, O75970
[17] = target: HTRA2, O43464
HTRA2, O43464, sequence (O43464 355-458): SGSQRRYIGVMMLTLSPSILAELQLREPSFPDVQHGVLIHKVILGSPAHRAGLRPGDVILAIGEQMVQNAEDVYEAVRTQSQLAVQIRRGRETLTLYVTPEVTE

[18] = target: T6, GRIP1_7, Q9Y3R0
[19] = target: MAGI2_3, Q86UL8
MAGI2_3, Q86UL8, sequence (Q86UL8 600-682): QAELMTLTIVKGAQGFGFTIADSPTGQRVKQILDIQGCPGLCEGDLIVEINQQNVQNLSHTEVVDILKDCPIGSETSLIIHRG

[20] = target: DLG4_3, P78352
DLG4_3, P78352, sequence (P78352 306-403): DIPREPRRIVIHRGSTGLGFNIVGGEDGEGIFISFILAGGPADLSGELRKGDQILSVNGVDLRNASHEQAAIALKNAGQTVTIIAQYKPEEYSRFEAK

[21] = target: FRMPD2_3, Q68DX3
FRMPD2_3, Q68DX3, sequence (Q68DX3 1073-1166): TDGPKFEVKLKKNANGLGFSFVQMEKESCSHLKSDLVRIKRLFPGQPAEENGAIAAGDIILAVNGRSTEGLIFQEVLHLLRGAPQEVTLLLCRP

[22] = target: T7, RAPGEF6, Q8TEU7
[23] = target: Inadl_2, Q8NI35
Inadl_2, Q8NI35, sequence (Q8NI35 238-335): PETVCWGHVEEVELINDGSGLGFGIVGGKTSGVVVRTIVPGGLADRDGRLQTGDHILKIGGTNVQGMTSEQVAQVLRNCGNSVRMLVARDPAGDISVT

[24] = target: T8, GRIP1_2, Q9Y3R0
[25] = target: T9, DFNB31_2, Q9P202
[26] = target: CASK, O14936
CASK, O14936, sequence (O14936 487-570): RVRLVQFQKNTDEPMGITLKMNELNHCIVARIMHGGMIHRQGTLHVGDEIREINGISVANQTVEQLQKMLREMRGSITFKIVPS

[27] = target: FRMPD4, Q14CM0
FRMPD4, Q14CM0, sequence (Q14CM0 67-160): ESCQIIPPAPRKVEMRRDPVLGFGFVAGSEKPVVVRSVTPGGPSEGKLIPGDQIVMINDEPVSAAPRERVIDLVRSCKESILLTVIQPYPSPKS

[28] = target: T10, RADIL, Q96JH8

Binder | pKd [1] | pKd [2] | pKd [3] | pKd [4] | pKd [5] | pKd [6] | pKd [7] | pKd [8] | pKd [9] | pKd [10] | pKd [11] | pKd [12] | pKd [13] | pKd [14] | pKd [15] | pKd [16] | pKd [17] | pKd [18] | pKd [19] | pKd [20] | further results
YAEKRMLTEV [KCNA6, P17658] | 4.65 | below the threshold | 4.28 | below the threshold | 3.54 | below the threshold | below the threshold | 4.62 | below the threshold | below the threshold | below the threshold | below the threshold | 4.32 | below the threshold | below the threshold | below the threshold | below the threshold | below the threshold | below the threshold | 3.74 | pKd [21]: below the threshold; pKd [22]: 3.48; pKd [23]: below the threshold; pKd [24]: below the threshold; pKd [25]: below the threshold; pKd [26]: below the threshold; pKd [27]: below the threshold; pKd [28]: 3.97
PALKNGQYWV [CSPG4, Q6UVK1] | below the threshold | 3.5 | below the threshold | 3.58 | 3.83 | below the threshold | 3.96 | 4.03 | below the threshold | below the threshold | 4.2 | 3.79 | 4.1 | below the threshold | 3.7 | below the threshold | 4.72 | 5.63 | below the threshold | below the threshold | pKd [21]: below the threshold; pKd [22]: below the threshold; pKd [23]: 4.38; pKd [24]: below the threshold; pKd [25]: below the threshold; pKd [26]: below the threshold; pKd [27]: 3.68; pKd [28]: 5.17

The next lines start with results.

pKd [1] | pKd [2] | pKd [3] | pKd [4] | pKd [5] | pKd [6] | pKd [7] | pKd [8] | pKd [9] | pKd [10] | pKd [11] | pKd [12] | pKd [13] | pKd [14] | pKd [15] | pKd [16] | pKd [17] | pKd [18] | pKd [19] | pKd [20] | Binder | further results
3.89 | below the threshold | below the threshold | below the threshold | below the threshold | below the threshold | below the threshold | below the threshold | below the threshold | below the threshold | below the threshold | 4.02 | below the threshold | below the threshold | below the threshold | below the threshold | below the threshold | below the threshold | below the threshold | below the threshold | GVHSNDHSVV [LPAR1, Q92633] | pKd [21]: below the threshold; pKd [22]: below the threshold; pKd [23]: below the threshold; pKd [24]: below the threshold; pKd [25]: below the threshold; pKd [26]: below the threshold; pKd [27]: below the threshold; pKd [28]: 3.62
4.89 | 4.07 | below the threshold | below the threshold | below the threshold | 3.85 | below the threshold | 4.47 | below the threshold | below the threshold | below the threshold | below the threshold | 3.85 | below the threshold | below the threshold | below the threshold | below the threshold | below the threshold | below the threshold | below the threshold | WAKEKQHTRL [SLC17A1, Q14916] | pKd [21]: below the threshold; pKd [22]: below the threshold; pKd [23]: below the threshold; pKd [24]: below the threshold; pKd [25]: below the threshold; pKd [26]: below the threshold; pKd [27]: 3.97; pKd [28]: below the threshold
